Assay results: article doi:10.1101/2021.01.20.427433, “Microarray screening reveals a non-conventional SUMO-binding mode linked to DNA repair by non-homologous end-joining” (bioRxiv, 2021)

Biological target: T1, XLF-6xHis (human, UniProt Q9H9Q4 1-299)
T1 construct: XLF, human, amplified from pGEX2TKP-XLF; source: E. coli (pHAT5), purified (His-trap, HiTrap Q)
Test: BLI; XLF-6xHis and XRCC4^1-164 wildtype or mutants
Conditions: both partners purified

T1 sequence (Q9H9Q4 whole entry): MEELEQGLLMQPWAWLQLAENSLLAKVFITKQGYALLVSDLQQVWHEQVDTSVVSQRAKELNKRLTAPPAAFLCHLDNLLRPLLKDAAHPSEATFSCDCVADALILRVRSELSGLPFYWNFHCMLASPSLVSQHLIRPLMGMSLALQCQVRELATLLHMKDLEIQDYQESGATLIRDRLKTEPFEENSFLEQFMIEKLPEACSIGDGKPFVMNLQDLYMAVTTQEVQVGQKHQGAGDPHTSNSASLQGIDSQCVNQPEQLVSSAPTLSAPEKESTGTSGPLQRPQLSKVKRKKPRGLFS

B1: 6xHis-XRCC4^1-164 (C-to-A), wildtype for the SIMs (domain or fragment, human, UniProt Q13426 1-164, looked up)
chain: MERKISRIHLVSEPSITHFLQVSWEKTLESGFVITLTDGHSAWTGTVSESEISQEADDMAMEKGKYVGELRKALLSGAGPADVYTFNFSKESAYFFFEKNLKDVSFRLGSFNLEKVENPAEVIRELIAYALDTIAENQAKNEHLQKENERLLRDWNDVQGRFEK
modifications: 15N-labelled where it is the observed protein in NMR
notes: The three cysteines are printed for the 1-180 construct amplified from this vector; also called XRCC4 head domain; source: E. coli BL21-CodonPlus (DE3)-RIL (pET-28a), purified; isotope-labelled in minimal medium for NMR
  binding result: binds
